# Experimental data: IntAct's records for PubMed 16990850
# B1: Serine/threonine-protein kinase/endoribonuclease IRE1 (Saccharomyces cerevisiae), P32361 (parent)
# chain: MRLLRRNMLVLTLLVCVFSSIISCSIPLSSRTSRRQIVEDEVASTKKLNFNYGVDKNINSPIPAPRTTEGLPNMKLSSYPTPNLLNTADNRRANKKGRRAANSISVPYLENRSLNELSLSDILIAADVEGGLHAVDRRNGHIIWSIEPENFQPLIEIQEPSRLETYETLIIEPFGDGNIYYFNAHQGLQKLPLSIRQLVSTSPLHLKTNIVVNDSGKIVEDEKVYTGSMRTIMYTINMLNGEIISAFGPGSKNGYFGSQSVDCSPEEKIKLQECENMIVIGKTIFELGIHSYDGASYNVTYSTWQQNVLDVPLALQNTFSKDGMCIAPFRDKSLLASDLDFRIARWVSPTFPGIIVGLFDVFNDLRTNENILVPHPFNPGDHESISSNKVYLDQTSNLSWFALSSQNFPSLVESAPISRYASSDRWRVSSIFEDETLFKNAIMGVHQIYNNEYDHLYENYEKTNSLDTTHKYPPLMIDSSVDTTDLHQNNEMNSLKEYMSPEDLEAYRKKIHEQISRELDEKNQNSLLLKFGSLVYRIIETGVFLLLFLIFCAILQRFKILPPLYVLLSKIGFMPEKEIPIVESKSLNCPSSSENVTKPFDMKSGKQVVFEGAVNDGSLKSEKDNDDADEDDEKSLDLTTEKKKRKRGSRGGKKGRKSRIANIPNFEQSLKNLVVSEKILGYGSSGTVVFQGSFQGRPVAVKRMLIDFCDIALMEIKLLTESDDHPNVIRYYCSETTDRFLYIALELCNLNLQDLVESKNVSDENLKLQKEYNPISLLRQIASGVAHLHSLKIIHRDLKPQNILVSTSSRFTADQQTGAENLRILISDFGLCKKLDSGQSSFRTNLNNPSGTSGWRAPELLEESNNLQCQVETEHSSSRHTVVSSDSFYDPFTKRRLTRSIDIFSMGCVFYYILSKGKHPFGDKYSRESNIIRGIFSLDEMKCLHDRSLIAEATDLISQMIDHDPLKRPTAMKVLRHPLFWPKSKKLEFLLKVSDRLEIENRDPPSALLMKFDAGSDFVIPSGDWTVKFDKTFMDNLERYRKYHSSKLMDLLRALRNKYHHFMDLPEDIAELMGPVPDGFYDYFTKRFPNLLIGVYMIVKENLSDDQILREFLYS
# partner: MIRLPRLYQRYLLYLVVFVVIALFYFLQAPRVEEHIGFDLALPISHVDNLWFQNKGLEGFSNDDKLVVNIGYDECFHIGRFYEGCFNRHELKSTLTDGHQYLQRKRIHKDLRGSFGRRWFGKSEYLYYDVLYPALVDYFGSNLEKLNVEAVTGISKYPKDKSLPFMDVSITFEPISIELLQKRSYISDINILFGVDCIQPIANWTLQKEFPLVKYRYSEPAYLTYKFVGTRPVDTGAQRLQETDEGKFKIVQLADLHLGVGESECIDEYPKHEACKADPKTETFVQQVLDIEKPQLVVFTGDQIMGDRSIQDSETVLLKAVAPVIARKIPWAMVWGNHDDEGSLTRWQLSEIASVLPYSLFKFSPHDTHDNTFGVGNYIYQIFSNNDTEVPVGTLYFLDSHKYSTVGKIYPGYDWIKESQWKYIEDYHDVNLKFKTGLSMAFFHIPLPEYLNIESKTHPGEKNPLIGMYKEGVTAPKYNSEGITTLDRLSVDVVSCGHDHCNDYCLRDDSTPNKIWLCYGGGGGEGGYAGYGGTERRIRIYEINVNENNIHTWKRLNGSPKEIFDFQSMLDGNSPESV
# Variants of: B1
# Details: with dcr2_yeast DCR2, Q05924
row,Variant,effect of a mutation on the interaction
1,S840A,increasing interaction
2,S841A,increasing interaction
